Assay results from the nanobody polyreactivity screen of Harvey et al. (2022).

Experiment: yeast display, Sf9 membrane polyspecificity reagent, FACS + sequencing; frameworks hold sequencing errors
In short: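 Sorting gates, low and high (top ~1%), were placed on anti-HA fluorescence to track expression and on streptavidin fluorescence to track reagent binding. A clone's polyreactivity label is taken from the gate it came out of. The reagent was 10% biotinylated, detergent-solubilized Sf9 membrane, applied for 1 hour at 4 °C to galactose-induced yeast display cells.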

Sequence: QVQLVESGGGLVQAGGSLLLSCAASGRTFNVYAMGRYRQAPGKERELVAAINRGGRTNYADSVKGRYTISRDNAKNTVYLQMNSLKPEDTAVYYCAALRVYVNWHKIGYDYWGQGTQVTVSS
- polyreactivity (PSR sort gate): low polyreactivity

Sequence: QVQLVESGGGLVQAGGSLLLSCAASGRTFQDNAMGWYRQAPGKERELVAAISWRGGSTNYADSVKGRFTISRDNAKNTVYLQMNSLKPEDTAVYYCTRDPRKYGKLDYWGQGTQVTVSS
- polyreactivity (PSR sort gate): low polyreactivity

Sequence: QVQLVESGGGLVQAGGSLLLSCAASGRTFTRYAMGWYRQAPGKERELVASITNGGGTYYADSVKGRFTMSRDNAKNTVYLQMNSLKPEDTAVYYCAKAERVTSHLYYSWGQGTQVTVSS
- polyreactivity (PSR sort gate): low polyreactivity

Sequence: QVQLVESGGGLVQAGGSLLLSCAASGSIFGYYAMGWYRQAPGKERELVAAITRRGGSTYYADSVKGRFTISRDNAKNTVYLQMNSLKPEDTAVYYCNKVTRTEYDYWGQGTQVTVSS
- polyreactivity (PSR sort gate): high polyreactivity

Sequence: QVQLVESGGGLVQAGGSLLLSCAASGSILVTYAMGWYRQAPGKERQLVAAISRGGRTYYADSVKGRFTISRDSAKNTVYLQMKSLNPEDNAVYYCNTLTRLVYDGMGYWGQGTQVIVSS
- polyreactivity (PSR sort gate): high polyreactivity

Sequence: QVQLVESGGGLVQAGGSLLLSCAASGSTFGANAMGWYRQAPGKEREFVAAISRSGVRTYYADSVKGRFTISRDNAKNTVYLQMNSLKPEDTAVYYCAADGYWWTYTRYDYWGQGTQVTVSS
- polyreactivity (PSR sort gate): low polyreactivity

Sequence: QVQLVESGGGLVQAGGSLLLSCAASGSTFPGYAMGWYRQEPGKERELVAAGGSTYYADSVKGRFTISLDNAKNTVYLQMNSLKPEDTAVYYCNARWYLVPIMEYLGQGTQVTVSS
- polyreactivity (PSR sort gate): low polyreactivity

Sequence: QVQLVESGGGLVQAGGSLLLSCAASGSTFSGYAMGWYRQAPRKESDLVASINWSGGSTYADSVKGRFTISRDNAKNTVYLQMNSLKPEDTAVYYCARRWRAYLYGGRDYWGQGTQVTVSS
- polyreactivity (PSR sort gate): low polyreactivity

Sequence: QVQLVESGGGLVQAGGSLLLSCAASGSTFYKYAMGWYRQAPGKERELVARNSRGGGSTYYADSVKGRFTISRDNAKNTVYLQMNSLKPEDTAVYYCAAGVRGQNEGYYWGQGTQVTVSS
- polyreactivity (PSR sort gate): high polyreactivity

Sequence: QVQLVESGGGLVQAGGSLLLSCAASGYTFGTYDMGWYRQAPGKERELVAAISIGGSTNYADSVKGRFTISRDNAKNTVYLQMNSLKPEDTAVYYCAAEVNVGTLLLSVIVEDGDYWGQGTQVTVSS
- polyreactivity (PSR sort gate): low polyreactivity

Sequence: QVQLVESGGGLVQAGGSLLLSCAASRSTFDTNAMGWYSQAPGKERELVAAIRWSTGNTYYADSVKGRFTISRDNAKKTDYLQKNSLKPEDTAVYYCAAYTGKHYKEGYWGQVTQVTVSS
- polyreactivity (PSR sort gate): low polyreactivity

Sequence: QVQLVESGGGLVQAGGSLLLSCSASGRNFRANAMGWYRQAHRKERELVAAITSTGDRTYYADSVKGRFTISRDNAKNTVYLQMNSLKQEDTAVYYCAAENNRYGGYRKYDYWGLGTQVTVSS
- polyreactivity (PSR sort gate): low polyreactivity

Sequence: QVQLVESGGGLVQAGGSLLLSCSASGRTFPVNAMGWYRKAHGKEREFVAVISSTGTTYYADSVKGRFTISRDNAKNTVYLQMNSLQPVDTAVYYCARRSNRRAYGNRVGVRRTVDYWGQGTQVTVSS
- polyreactivity (PSR sort gate): low polyreactivity

Sequence: QVQLVESGGGLVQAGGSLLLSSAASGRTFSINAMGWYRQAHGKERELVAAITWSGGSTYYADSVKGRFTISRDNAKNTVYLQMNSLKPEDTAVYYCNAGLGKFPVKGGRRYRLDYSGQGTQVTVSS
- polyreactivity (PSR sort gate): low polyreactivity

Sequence: QVQLVESGGGLVQAGGSLLLSSAASGSIFQPYAMGWYRPAPGKERELVAAISIGDSTNYADSVKGRFTISRDNAKITVYLQMNSLKPEDTAVYYCNTTGEYYDYWGQGTQVTVSS
- polyreactivity (PSR sort gate): low polyreactivity

Sequence: QVQLVESGGGLVQAGGSLPLSCAASGLTFYRYAMGWYREAPGKERELVAAISFSGGSTYYADSVKGRFTISRDIAKYTVYIQMNCLKPEDTAVYYCAASYQGRRYQDRYDYWGQGNQVTVSS
- polyreactivity (PSR sort gate): high polyreactivity

Sequence: QVQLVESGGGLVQAGGSLPLSCAASGNTFYNYAMGWYRQAPGKERELVAAISLSGGSTYYADSVKGRFTISRDNAKNTVYLQMNSLKPEDTAVYYCAADIFYYSSSYGYWGQGTQVTVSS
- polyreactivity (PSR sort gate): low polyreactivity
